Source: article PMC11799418

Legend:
Endophilin B1 (human) [1] = biological target: Endophilin B1 (human) (UniProt Q9Y371); experiment: cryo-EM structure; endophilin B1 incubated with MSP2N2 nanodiscs at molar ratio 1:2 (MSP2N2:endophilin B1); cryo-EM data split into 2 classes
Endophilin B1 (human) [2] = biological target: Endophilin B1 (human) (UniProt Q9Y371); experiment: cryo-EM structure; endophilin B1 incubated with His6-MSP2N2 nanodiscs (90% DOPS, 10% 14:0 cardiolipin), molar ratio 1:10 (MSP2N2:endophilin B1), SEC peak vitrified; single-particle reconstruction of membrane-bound endophilin B1 on bicelles, cryoSPARC and cryoDRGN
Endophilin B1 (human) [3] = biological target: Endophilin B1 (human) (UniProt Q9Y371); experiment: SAXS; in solution, 8 and 16 μM endophilin B1 (0.34 and 0.69 mg/ml); 150 mM NaCl, 20 mM HEPES, 1 mM TCEP, 0.5 mM DTT, pH 8.1, 4 °C; monomer to dimer

Endophilin B1 (from UniProt Q9Y371 1-365) (natural protein)
stoichiometry N (Endophilin B1 (human) [1]): 2 | dimers bound per bicelle (Endophilin B1 (human) [2]): 6 dimers | stoichiometry N (Endophilin B1 (human) [3]): 2
